Test results taken from patent US12679878B2, “CRF2 receptor agonists and their use in therapy” (SANOFI, priority 2020, dated 2026).
Starred links: 1 amine or outer side, 2 acyl side, 3 side chain; linkers in the order of their positions; H or OH if unused. Non-standard residues stand in square brackets, D forms with d. Groups on a side chain read outwards from the residue. No end group written: not given here. *: point of attachment. C20 diacid = O=C(O)CCCCCCCCCCCCCCCCCCC(=O)*; C18 diacid = O=C(O)CCCCCCCCCCCCCCCCC(=O)*; C16 diacid = O=C(O)CCCCCCCCCCCCCCC(=O)*; γGlu = O=C(O)[C@H](CCC(=O)[*:2])N[*:1]; Palmitoyl = CCCCCCCCCCCCCCCC(=O)*; AEEA = NCCOCCOCC(=O)O; Aib = CC(C)(N)C(=O)O

Target: human corticotropin-releasing factor 2α (CRF2 α receptor) (human), Q13324
Test: cell-based or functional assay

human corticotropin-releasing factor 2α (CRF2 α receptor) (human), Q13324, sequence (Q13324 20-411): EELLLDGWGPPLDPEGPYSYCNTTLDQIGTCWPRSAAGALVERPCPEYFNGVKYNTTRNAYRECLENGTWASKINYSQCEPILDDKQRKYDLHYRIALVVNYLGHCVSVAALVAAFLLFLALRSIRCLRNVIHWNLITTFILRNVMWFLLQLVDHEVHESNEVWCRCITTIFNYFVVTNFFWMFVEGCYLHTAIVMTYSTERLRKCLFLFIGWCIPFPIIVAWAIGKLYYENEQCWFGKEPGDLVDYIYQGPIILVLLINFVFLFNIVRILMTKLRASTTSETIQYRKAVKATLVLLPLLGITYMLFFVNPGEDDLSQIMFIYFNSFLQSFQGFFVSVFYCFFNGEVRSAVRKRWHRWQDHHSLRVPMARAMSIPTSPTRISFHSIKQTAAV

| Binder | EC50 [nM], 0% HSA [nM] | EC50 [nM], 0.1% HSA [nM] |
| --- | --- | --- |
| IVLSLD[dV]PTKLK([γGlu-Palmitoyl])KKLLKQERKRKEREKAEKNARILERV-NH2 (N-terminus assumed; SMILES CCCCCCCCCCCCCCCC(=O)N[C@@H](CCC(=O)NCCCC[C@H](NC(=O)[C@H](CC(C)C)NC(=O)[C@H](CCCCN)NC(=O)[C@@H](NC(=O)[C@@H]1CCCN1C(=O)[C@H](NC(=O)[C@H](CC(=O)O)NC(=O)[C@H](CC(C)C)NC(=O)[C@H](CO)NC(=O)[C@H](CC(C)C)NC(=O)[C@@H](NC(=O)[C@@H](N)[C@@H](C)CC)C(C)C)C(C)C)[C@@H](C)O)C(=O)N[C@@H](CCCCN)C(=O)N[C@@H](CCCCN)C(=O)N[C@@H](CC(C)C)C(=O)N[C@@H](CC(C)C)C(=O)N[C@@H](CCCCN)C(=O)N[C@@H](CCC(N)=O)C(=O)N[C@@H](CCC(=O)O)C(=O)N[C@@H](CCCNC(=N)N)C(=O)N[C@@H](CCCCN)C(=O)N[C@@H](CCCNC(=N)N)C(=O)N[C@@H](CCCCN)C(=O)N[C@@H](CCC(=O)O)C(=O)N[C@@H](CCCNC(=N)N)C(=O)N[C@@H](CCC(=O)O)C(=O)N[C@@H](CCCCN)C(=O)N[C@@H](C)C(=O)N[C@@H](CCC(=O)O)C(=O)N[C@@H](CCCCN)C(=O)N[C@@H](CC(N)=O)C(=O)N[C@@H](C)C(=O)N[C@@H](CCCNC(=N)N)C(=O)N[C@H](C(=O)N[C@@H](CC(C)C)C(=O)N[C@@H](CCC(=O)O)C(=O)N[C@@H](CCCNC(=N)N)C(=O)N[C@H](C(N)=O)C(C)C)[C@@H](C)CC)C(=O)O) [SEQ ID NO: 25] | 0.09 |  |
| IVLSLD[dV]PTKLK([γGlu-C16 diacid])QKLLKQERQRKEREQAEKNVRILERV-NH2 (N-terminus assumed; SMILES CC[C@H](C)[C@H](N)C(=O)N[C@H](C(=O)N[C@@H](CC(C)C)C(=O)N[C@@H](CO)C(=O)N[C@@H](CC(C)C)C(=O)N[C@@H](CC(=O)O)C(=O)N[C@@H](C(=O)N1CCC[C@H]1C(=O)N[C@H](C(=O)N[C@@H](CCCCN)C(=O)N[C@@H](CC(C)C)C(=O)N[C@@H](CCCCNC(=O)CC[C@H](NC(=O)CCCCCCCCCCCCCCC(=O)O)C(=O)O)C(=O)N[C@@H](CCC(N)=O)C(=O)N[C@@H](CCCCN)C(=O)N[C@@H](CC(C)C)C(=O)N[C@@H](CC(C)C)C(=O)N[C@@H](CCCCN)C(=O)N[C@@H](CCC(N)=O)C(=O)N[C@@H](CCC(=O)O)C(=O)N[C@@H](CCCNC(=N)N)C(=O)N[C@@H](CCC(N)=O)C(=O)N[C@@H](CCCNC(=N)N)C(=O)N[C@@H](CCCCN)C(=O)N[C@@H](CCC(=O)O)C(=O)N[C@@H](CCCNC(=N)N)C(=O)N[C@@H](CCC(=O)O)C(=O)N[C@@H](CCC(N)=O)C(=O)N[C@@H](C)C(=O)N[C@@H](CCC(=O)O)C(=O)N[C@@H](CCCCN)C(=O)N[C@@H](CC(N)=O)C(=O)N[C@H](C(=O)N[C@@H](CCCNC(=N)N)C(=O)N[C@H](C(=O)N[C@@H](CC(C)C)C(=O)N[C@@H](CCC(=O)O)C(=O)N[C@@H](CCCNC(=N)N)C(=O)N[C@H](C(N)=O)C(C)C)[C@@H](C)CC)C(C)C)[C@@H](C)O)C(C)C)C(C)C) [SEQ ID NO: 222] | 0.01 |  |
| IVLSLD[dV]PIKLK(C18 diacid)QILLKQARQK[Aib]QRAQAEKNKRILERV-NH2 (N-terminus assumed; SMILES CC[C@H](C)[C@H](N)C(=O)N[C@H](C(=O)N[C@@H](CC(C)C)C(=O)N[C@@H](CO)C(=O)N[C@@H](CC(C)C)C(=O)N[C@@H](CC(=O)O)C(=O)N[C@@H](C(=O)N1CCC[C@H]1C(=O)N[C@H](C(=O)N[C@@H](CCCCN)C(=O)N[C@@H](CC(C)C)C(=O)N[C@@H](CCCCNC(=O)CCCCCCCCCCCCCCCCC(=O)O)C(=O)N[C@@H](CCC(N)=O)C(=O)N[C@H](C(=O)N[C@@H](CC(C)C)C(=O)N[C@@H](CC(C)C)C(=O)N[C@@H](CCCCN)C(=O)N[C@@H](CCC(N)=O)C(=O)N[C@@H](C)C(=O)N[C@@H](CCCNC(=N)N)C(=O)N[C@@H](CCC(N)=O)C(=O)N[C@@H](CCCCN)C(=O)NC(C)(C)C(=O)N[C@@H](CCC(N)=O)C(=O)N[C@@H](CCCNC(=N)N)C(=O)N[C@@H](C)C(=O)N[C@@H](CCC(N)=O)C(=O)N[C@@H](C)C(=O)N[C@@H](CCC(=O)O)C(=O)N[C@@H](CCCCN)C(=O)N[C@@H](CC(N)=O)C(=O)N[C@@H](CCCCN)C(=O)N[C@@H](CCCNC(=N)N)C(=O)N[C@H](C(=O)N[C@@H](CC(C)C)C(=O)N[C@@H](CCC(=O)O)C(=O)N[C@@H](CCCNC(=N)N)C(=O)N[C@H](C(N)=O)C(C)C)[C@@H](C)CC)[C@@H](C)CC)[C@@H](C)CC)C(C)C)C(C)C) [SEQ ID NO: 183] | 0.12 | 1.58 |
| IVLSLD[dV]PIKLK(C18 diacid)QILLKQERQKKQRQQAEKNKQILAQV-NH2 (N-terminus assumed; SMILES CC[C@H](C)[C@H](N)C(=O)N[C@H](C(=O)N[C@@H](CC(C)C)C(=O)N[C@@H](CO)C(=O)N[C@@H](CC(C)C)C(=O)N[C@@H](CC(=O)O)C(=O)N[C@@H](C(=O)N1CCC[C@H]1C(=O)N[C@H](C(=O)N[C@@H](CCCCN)C(=O)N[C@@H](CC(C)C)C(=O)N[C@@H](CCCCNC(=O)CCCCCCCCCCCCCCCCC(=O)O)C(=O)N[C@@H](CCC(N)=O)C(=O)N[C@H](C(=O)N[C@@H](CC(C)C)C(=O)N[C@@H](CC(C)C)C(=O)N[C@@H](CCCCN)C(=O)N[C@@H](CCC(N)=O)C(=O)N[C@@H](CCC(=O)O)C(=O)N[C@@H](CCCNC(=N)N)C(=O)N[C@@H](CCC(N)=O)C(=O)N[C@@H](CCCCN)C(=O)N[C@@H](CCCCN)C(=O)N[C@@H](CCC(N)=O)C(=O)N[C@@H](CCCNC(=N)N)C(=O)N[C@@H](CCC(N)=O)C(=O)N[C@@H](CCC(N)=O)C(=O)N[C@@H](C)C(=O)N[C@@H](CCC(=O)O)C(=O)N[C@@H](CCCCN)C(=O)N[C@@H](CC(N)=O)C(=O)N[C@@H](CCCCN)C(=O)N[C@@H](CCC(N)=O)C(=O)N[C@H](C(=O)N[C@@H](CC(C)C)C(=O)N[C@@H](C)C(=O)N[C@@H](CCC(N)=O)C(=O)N[C@H](C(N)=O)C(C)C)[C@@H](C)CC)[C@@H](C)CC)[C@@H](C)CC)C(C)C)C(C)C) [SEQ ID NO: 184] | 0.05 | 2.83 |
| IVLSLD[dV]PTKLK([γGlu-Palmitoyl])QKLLKQERQRKER[Aib]QAEKNKRILERV-NH2 (N-terminus assumed; SMILES CCCCCCCCCCCCCCCC(=O)N[C@@H](CCC(=O)NCCCC[C@H](NC(=O)[C@H](CC(C)C)NC(=O)[C@H](CCCCN)NC(=O)[C@@H](NC(=O)[C@@H]1CCCN1C(=O)[C@H](NC(=O)[C@H](CC(=O)O)NC(=O)[C@H](CC(C)C)NC(=O)[C@H](CO)NC(=O)[C@H](CC(C)C)NC(=O)[C@@H](NC(=O)[C@@H](N)[C@@H](C)CC)C(C)C)C(C)C)[C@@H](C)O)C(=O)N[C@@H](CCC(N)=O)C(=O)N[C@@H](CCCCN)C(=O)N[C@@H](CC(C)C)C(=O)N[C@@H](CC(C)C)C(=O)N[C@@H](CCCCN)C(=O)N[C@@H](CCC(N)=O)C(=O)N[C@@H](CCC(=O)O)C(=O)N[C@@H](CCCNC(=N)N)C(=O)N[C@@H](CCC(N)=O)C(=O)N[C@@H](CCCNC(=N)N)C(=O)N[C@@H](CCCCN)C(=O)N[C@@H](CCC(=O)O)C(=O)N[C@@H](CCCNC(=N)N)C(=O)NC(C)(C)C(=O)N[C@@H](CCC(N)=O)C(=O)N[C@@H](C)C(=O)N[C@@H](CCC(=O)O)C(=O)N[C@@H](CCCCN)C(=O)N[C@@H](CC(N)=O)C(=O)N[C@@H](CCCCN)C(=O)N[C@@H](CCCNC(=N)N)C(=O)N[C@H](C(=O)N[C@@H](CC(C)C)C(=O)N[C@@H](CCC(=O)O)C(=O)N[C@@H](CCCNC(=N)N)C(=O)N[C@H](C(N)=O)C(C)C)[C@@H](C)CC)C(=O)O) [SEQ ID NO: 23] | 0.02 |  |
| IVLSLD[dV]PTKLK([AEEA-AEEA-γGlu-C18 diacid])QKLLKQERQRKEREQAEKNKRILERV-NH2 (N-terminus assumed; SMILES CC[C@H](C)[C@H](N)C(=O)N[C@H](C(=O)N[C@@H](CC(C)C)C(=O)N[C@@H](CO)C(=O)N[C@@H](CC(C)C)C(=O)N[C@@H](CC(=O)O)C(=O)N[C@@H](C(=O)N1CCC[C@H]1C(=O)N[C@H](C(=O)N[C@@H](CCCCN)C(=O)N[C@@H](CC(C)C)C(=O)N[C@@H](CCCCNC(=O)COCCOCCNC(=O)COCCOCCNC(=O)CC[C@H](NC(=O)CCCCCCCCCCCCCCCCC(=O)O)C(=O)O)C(=O)N[C@@H](CCC(N)=O)C(=O)N[C@@H](CCCCN)C(=O)N[C@@H](CC(C)C)C(=O)N[C@@H](CC(C)C)C(=O)N[C@@H](CCCCN)C(=O)N[C@@H](CCC(N)=O)C(=O)N[C@@H](CCC(=O)O)C(=O)N[C@@H](CCCNC(=N)N)C(=O)N[C@@H](CCC(N)=O)C(=O)N[C@@H](CCCNC(=N)N)C(=O)N[C@@H](CCCCN)C(=O)N[C@@H](CCC(=O)O)C(=O)N[C@@H](CCCNC(=N)N)C(=O)N[C@@H](CCC(=O)O)C(=O)N[C@@H](CCC(N)=O)C(=O)N[C@@H](C)C(=O)N[C@@H](CCC(=O)O)C(=O)N[C@@H](CCCCN)C(=O)N[C@@H](CC(N)=O)C(=O)N[C@@H](CCCCN)C(=O)N[C@@H](CCCNC(=N)N)C(=O)N[C@H](C(=O)N[C@@H](CC(C)C)C(=O)N[C@@H](CCC(=O)O)C(=O)N[C@@H](CCCNC(=N)N)C(=O)N[C@H](C(N)=O)C(C)C)[C@@H](C)CC)[C@@H](C)O)C(C)C)C(C)C) [SEQ ID NO: 24] | 6.95 |  |
| IVLSLD[dV]PTKLK([AEEA-AEEA-γGlu-C20 diacid])KKLLKQERKR[Aib]EREKAEKAARILERV-NH2 [SEQ ID NO: 224] | 6.85 |  |
